Assay results taken from patent US20050255117A1 (Biogen, published 2005).

T1: CR-Fc (UniProt P13385 31-169)
T1 construct: not shown: Fc part; not described
T1 sequence (looked up): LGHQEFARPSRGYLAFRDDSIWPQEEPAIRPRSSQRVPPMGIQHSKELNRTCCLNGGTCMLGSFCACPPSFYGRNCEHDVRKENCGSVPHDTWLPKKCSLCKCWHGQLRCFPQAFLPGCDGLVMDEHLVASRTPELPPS

B1: GDNF (ligand, UniProt P39905 78-211, looked up)
chain: SPDKQMAVLPRRERNRQAAAANPENSRGKGRRGQRGKNRGCVLTAIHLNVTDLGLGYETKEELIFRYCSGSCDAAETTYDKILKNLSRNRRLVSDKVGQACCRPIAFDDDLSFLDDNLVYHILRKHSAKRCGCI
B2: Activin B (ligand, UniProt P09529 293-407, looked up)
chain: GLECDGRTNLCCRQQFFIDFRLIGWNDWIIAPTGYYGNYCEGSCPAYLAGVPGSASSFHTAVVNQYRMRGLNPGTVNSCCIPTKLSTMSMLYFDDEYNIVKRDVPNMIVEECGCA
B3: Activin A (ligand, UniProt P08476 311-426, looked up)
chain: GLECDGKVNICCKKQFFVSFKDIGWNDWIIAPSGYHANYCEGECPSHIAGTSGSSLSFHSTVINHYRMRGHSPFANLKSCCVPTKLRPMSMLYYDDGQNIIKKDIQNMIVEECGCS
B4: BMP2 (ligand, UniProt P12643 283-396, looked up)
chain: QAKHKQRKRLKSSCKRHPLYVDFSDVGWNDWIVAPPGYHAFYCHGECPFPLADHLNSTNHAIVQTLVNSVNSKIPKACCVPTELSAISMLYLDENEKVVLKNYQDMVVEGCGCR

Legend:
CR-Fc [1] = target: T1, CR-Fc; test: ELISA, ligand coated on the plate, CR-Fc detected with anti-Fc-alkaline phosphatase
Method: We discovered that Cripto binds directly to Activin B. We coated ELISA plates with purified Activin B, Activin A, TGFβ1, GDNF or BMP2 and incubated with CR-Fc. We then added anti-Fc antibody conjugated to alkaline phosphatase and monitored binding by adding an alkaline phosphatase substrate and developing. We observed that CR-Fc bound to wells containing Activin B, but not to Activin A or the other ligands (FIG. 8). In addition, we pre-incubated CR-Fc with Activin A or B in solution before adding to an Activin B coated plate and observed that only Activin B inhibited binding (FIG. 9).

CR-Fc [2] = target: T1, CR-Fc; test: Biacore, competition format in solution
LTβR-Fc = target: T2, LTβR-Fc (UniProt P36941 31-227); test: Biacore, Fc fusion protein immobilized on the chip
T2 construct: Control protein on the Biacore chip; also called LT-beta receptor-Fc; control LTβR-Fc protein; not shown: Fc part; not described
T2 sequence (P36941 31-227): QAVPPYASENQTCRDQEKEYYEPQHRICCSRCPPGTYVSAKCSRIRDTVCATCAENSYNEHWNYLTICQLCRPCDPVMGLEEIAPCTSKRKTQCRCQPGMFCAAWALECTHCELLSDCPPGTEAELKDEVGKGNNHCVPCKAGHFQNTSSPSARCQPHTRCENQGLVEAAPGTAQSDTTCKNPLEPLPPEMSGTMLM
Text: We also analyzed the Cripto-Activin B interaction using Biacore. We discovered that Activin B directly binds CR-Fc immobilized on a Biacore chip with a high intensity, but not to a control LTβR-Fc protein (FIG. 10). We also observed that Activin A binding to CR-Fc was negligible.

binding result (CR-Fc [1]) | Kd (CR-Fc [2]) [nM] | binding result (LTβR-Fc) | Binder
no binding | – | – | B1
– | ~1 | no binding | B2
no binding | – | – | B3
no binding | – | – | B4
